We go through five molecules from patent US20220372130A1 (MITSUBISHI TANABE PHARMA, published 2022).

What is called Kd is the constant that tells how readily two partners part at equilibrium.

To fix the notation:
T1: human IL-33 protein (residue 112 to residue 270) (ATGen, ILC070) (human, UniProt O95760 112-270)
T1 construct: Bought protein (ATGen, ILC070); also called IL-33 (residue 112 to residue 270)
T1 sequence: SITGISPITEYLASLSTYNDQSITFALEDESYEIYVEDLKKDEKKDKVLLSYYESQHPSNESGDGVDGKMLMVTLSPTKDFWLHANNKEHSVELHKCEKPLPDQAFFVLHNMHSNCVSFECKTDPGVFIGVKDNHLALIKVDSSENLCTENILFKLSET

B1: A10-1C04 (antibody, human IgG1, lambda, V domains shown)
VH: EVQLLESGGGLVQPGGSLRLSCAASGFTFSDYYMNWVRQAPGKGLEWVSSISRYSSYIYYADSVKGRFTISRDNSKNTLYLQMNSLRAEDTAVYYCARDIGGMDVWGQGTLVTVSS
VL: QSVLTQPPSASGTPGQRVTISCTGSSSNIGAVYDVHWYQQLPGTAPKLLIYRNNQRPSGVPDRFSGSKSGTSASLAISGLRSEDEADYYCQTYDSSRWVFGGGTKLTVLG
notes: Prepared with recombinant CHO cells; constant region said to be preferably human IgG1; also called human IL-33 antibody; human anti-IL-33 monoclonal antibody
B2: A25-2C02 (antibody, human IgG1, lambda, V domains shown)
VH: EVQLLESGGGLVQPGGSLRLSCAASGFTFSNYYMHWVRQAPGKGLEWVSSISARSSYIYYADSVKGRFTISRDNSKNTLYLQMNSLRAEDTAVYYCARLATRNNAFDIWGQGTLVTVSS
VL: QSVLTQPPSASGTPGQRVTISCSGSSSNIGRNAVNWYQQLPGTAPKLLIYASNMRVSGVPDRFSGSKSGTSASLAISGLRSEDEADYYCWAWDDSQKVGVFGGGTKLTVLG
notes: Prepared with recombinant CHO cells; constant region said to be preferably human IgG1; also called A25-2CO2; human IL-33 antibody
B3: A23-1A05 (antibody, human IgG1, lambda, V domains shown)
VH: EVQLLESGGGLVQPGGSLRLSCAASGFTFSNYYMHWVRQAPGKGLEWVSSISARSRYHYYADSVKGRFTISRDNSKNTLYLQMNSLRAEDTAVYYCARLATRHNAFDIWGQGTLVTVSS
VL: QSVLTQPPSASGTPGQRVTISCSGSSSNIGNNAVSWYQQLPGTAPKLLIYASNMRVIGVPDRFSGSKSGTSASLAISGLRSEDEADYYCGAWDDSQKALVFGGGTKLTVLG
notes: as for B1
B4: A26-1F02 (antibody, human IgG1, lambda, V domains shown)
VH: EVQLLESGGGLVQPGGSLRLSCAASGFTFSNYYMHWVRQAPGKGLEWVSSISARSSYLYYADSVKGRFTISRDNSKNTLYLQMNSLRAEDTAVYYCARLATRHVAFDIWGQGTLVTVSS
VL: QSVLTQPPSASGTPGQRVTISCSGSSSNIGNNAVNWYQQLPGTAPKLLIYASNMRRPGVPDRFSGSKSGTSASLAISGLRSEDEADYYCEAWDDSQKAVVFGGGTKLTVLG
notes: as for B1
B5: A25-3H04 (antibody, human IgG1, lambda, V domains shown)
VH: EVQLLESGGGLVQPGGSLRLSCAASGFTFSRYYMHWVRQAPGKGLEWVSSISAQSSHIYYADSVEGRFTISRDNSKNTLYLQMNSLRAEDTAVYYCARLATRQNAFDIWGQGTLVTVSS
VL: QSVLTQPPSASGTPGQRVTISCSGSSSNIGRNAVNWYQQLPGTAPKLLIYASNMRRSGVPDRFSGSKSGTSASLAISGLRSEDEADYYCSAWDDSQKVVVFGGGTKLTVLG
notes: as for B1

This experiment has as its target T1, human IL-33 protein (residue 112 to …). Nature of the experiment: KinExA. As to the method: Five types of human IL-33 antibodies (A10-1C04, A23-1A05, A25-2CO2, A25-3H04 and A26-1F02) along with mouse sST2-Fc, which is a fusion protein of mouse ST2 and human IgG1 constant region, were prepared with recombinant CHO cells (WO 2015/099175).
For orientation: In KinExA the mixture passes briefly over coated beads that capture the unbound partner.
Take B1: the Kd is 100 pM.

B2 returned a Kd of 0.7 pM.

Regarding B3, binding was put at a Kd of 195 pM. This Kd lies about 280-fold higher than the previous one.

B4 yielded an equilibrium dissociation constant (Kd) of 5.3 pM.

B5 had a Kd of 7.7 pM. This Kd and that of the molecule before are within 1.5-fold of each other.
